The results in this text go back to article PMC9687980.

This experiment concerns the target human Fc fusion angiotensin-converting enzyme 2 (hACE2-Fc) (human) (UniProt Q9BYF1). Put plainly: BLI. On the technique in general: BLI is a label-free optical method that tracks binding on a fibre tip over time.

One may read the Kd as the free concentration of one partner at which half of the binding sites on the other are occupied at equilibrium, for simple one-to-one binding. A higher Kd goes with a looser complex. In general, koff refers to a measure of how fast the partners let go of each other. Lower therefore signals a long-lived complex. In general, kon refers to a measure of how fast the partners come together. The low end stands for slow association, the high end for fast association.

Chain of human Fc fusion angiotensin-converting enzyme 2 (hACE2-Fc) (human) (Q9BYF1 18-740): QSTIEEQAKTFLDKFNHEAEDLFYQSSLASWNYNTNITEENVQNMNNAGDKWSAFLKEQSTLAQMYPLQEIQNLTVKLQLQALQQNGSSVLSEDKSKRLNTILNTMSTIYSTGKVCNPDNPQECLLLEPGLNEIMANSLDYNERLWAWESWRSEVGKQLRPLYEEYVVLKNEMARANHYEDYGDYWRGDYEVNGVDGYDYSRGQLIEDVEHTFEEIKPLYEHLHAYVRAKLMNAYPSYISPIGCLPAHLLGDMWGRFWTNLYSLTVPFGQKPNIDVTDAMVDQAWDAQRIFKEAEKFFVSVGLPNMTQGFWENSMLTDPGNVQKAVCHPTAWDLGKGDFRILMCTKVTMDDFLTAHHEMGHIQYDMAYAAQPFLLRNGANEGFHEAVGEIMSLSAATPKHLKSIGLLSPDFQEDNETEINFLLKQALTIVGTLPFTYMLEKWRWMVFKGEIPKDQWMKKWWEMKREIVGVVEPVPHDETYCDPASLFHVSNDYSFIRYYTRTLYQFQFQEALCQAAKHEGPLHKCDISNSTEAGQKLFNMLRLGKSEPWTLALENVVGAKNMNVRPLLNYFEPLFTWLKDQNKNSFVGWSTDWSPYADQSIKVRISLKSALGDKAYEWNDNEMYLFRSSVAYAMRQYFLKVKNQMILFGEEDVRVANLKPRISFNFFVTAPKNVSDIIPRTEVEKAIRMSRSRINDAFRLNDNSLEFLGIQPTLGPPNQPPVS

The substance “spike RBD of SARS-CoV-2 Omicron expressed in a mammalian system (domain or fragment)” registered a Kd of 7.16 nM, a koff of 0.00161 s⁻¹ and an on-rate (kon) of 226000 M⁻¹ s⁻¹.
With “MBP-fused spike receptor binding domain of SARS-CoV-2 Omicron BA.1 (MBP-RBDomi) (domain or fragment)”, the Kd was determined as 10.1 nM, the koff worked out at 0.00174 s⁻¹ and the kon came out at 172000 M⁻¹ s⁻¹.
